Measurements as given in patent publication US20200147231A1 (NATIONAL CANCER CENTER JAPAN, published 2020).

T1: insoluble fibrin (fibrinogen from human plasma, immobilised on a plate and treated with thrombin) (human, UniProt P02671 36-629; P02679 27-437)
T1 construct: Plasma-derived material; also called fibrin plate; insoluble fibrin plate
T1 sequence 1: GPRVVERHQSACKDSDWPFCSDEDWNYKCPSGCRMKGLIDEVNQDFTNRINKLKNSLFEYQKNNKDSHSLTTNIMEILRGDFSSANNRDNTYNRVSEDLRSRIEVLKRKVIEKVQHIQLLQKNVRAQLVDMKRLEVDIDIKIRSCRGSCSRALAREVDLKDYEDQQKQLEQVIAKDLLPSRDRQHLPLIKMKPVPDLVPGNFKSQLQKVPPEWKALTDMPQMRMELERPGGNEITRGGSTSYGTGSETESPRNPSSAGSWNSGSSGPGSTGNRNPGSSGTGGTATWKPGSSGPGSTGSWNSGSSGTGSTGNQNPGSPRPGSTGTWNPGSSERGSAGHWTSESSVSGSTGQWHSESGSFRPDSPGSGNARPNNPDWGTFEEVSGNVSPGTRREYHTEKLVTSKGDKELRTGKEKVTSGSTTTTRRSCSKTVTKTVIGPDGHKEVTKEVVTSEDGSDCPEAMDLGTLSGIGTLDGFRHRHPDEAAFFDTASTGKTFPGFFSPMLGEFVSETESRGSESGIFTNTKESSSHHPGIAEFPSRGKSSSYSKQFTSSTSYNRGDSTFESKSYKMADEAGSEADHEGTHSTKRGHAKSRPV
T1 sequence 2: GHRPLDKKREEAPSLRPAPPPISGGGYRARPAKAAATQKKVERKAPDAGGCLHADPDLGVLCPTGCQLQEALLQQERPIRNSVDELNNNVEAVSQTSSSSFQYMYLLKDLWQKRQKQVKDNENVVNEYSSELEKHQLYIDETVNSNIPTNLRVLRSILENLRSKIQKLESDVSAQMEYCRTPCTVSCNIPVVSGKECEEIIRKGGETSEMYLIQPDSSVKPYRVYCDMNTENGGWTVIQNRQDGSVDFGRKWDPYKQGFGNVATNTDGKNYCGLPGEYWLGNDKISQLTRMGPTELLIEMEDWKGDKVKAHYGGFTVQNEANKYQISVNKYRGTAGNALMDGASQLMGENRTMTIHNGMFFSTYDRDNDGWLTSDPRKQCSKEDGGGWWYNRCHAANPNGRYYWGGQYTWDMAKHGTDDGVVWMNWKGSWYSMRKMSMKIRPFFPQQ
T1 sequence 3: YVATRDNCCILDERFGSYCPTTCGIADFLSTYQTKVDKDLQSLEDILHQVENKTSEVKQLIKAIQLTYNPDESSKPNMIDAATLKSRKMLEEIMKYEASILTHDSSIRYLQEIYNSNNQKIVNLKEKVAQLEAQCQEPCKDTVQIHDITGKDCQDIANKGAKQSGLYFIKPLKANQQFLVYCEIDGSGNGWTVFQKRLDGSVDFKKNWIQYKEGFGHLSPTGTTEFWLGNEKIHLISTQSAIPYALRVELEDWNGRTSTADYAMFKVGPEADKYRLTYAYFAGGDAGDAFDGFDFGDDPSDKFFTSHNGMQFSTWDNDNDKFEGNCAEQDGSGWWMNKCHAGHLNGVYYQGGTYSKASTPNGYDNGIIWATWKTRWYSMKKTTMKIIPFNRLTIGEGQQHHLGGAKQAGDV


Experiments:
[1] = target: peptide of the epitope site of 102-10; test: SPR (Biacore T200), peptide immobilised on CM5, antibody as analyte, multi cycle kinetics
[2] = target: T1, insoluble fibrin (fibrinogen from human …); test: ELISA on the human fibrin plate (coated fibrinogen treated with thrombin), HRP secondary antibody, absorbance at 450 nm
Procedure: In advance of the ELISA, an antigen-immobilized plate was prepared. Fibrinogen from human plasma (SIGMA) was dissolved in TBS (pH 8.5) to produce a 20 μg/mL fibrinogen solution. The solution was added to a 96-well immunoplate at 50 μL/well and was left to stand at 4° C. overnight to prepare a fibrinogen plate. Thrombin diluted to 0.05 NIH U/mL with a thrombin diluent [7 mM L-cysteine (FUJIFILM Wako Pure Chemical Corporation), 1 mM CaCl₂ (FUJIFILM Wako Pure Chemical Corporation), TBS (pH 8.5)] was added to the fibrinogen plate at 100 μL/well and was incubated at 37° C. for 2 hours to prepare a fibrin plate. The plate on which each antigen was immobilized was washed with 200 μL of PBS-T (PBS, 0.5% (v/v) Tween 20) three times, and 200 μL of a blocking solution [PBS-T, 1% (w/v) BSA] were added to each well, followed by being left to stand at room temperature for 1 hour for blocking. The samples serially diluted with PBS were added to the plate at 50 μL/well and were left to stand at room temperature for 1 hour. The solutions were discarded, and the plate was washed with PBS-T three times. A secondary antibody diluted to 0.3 μg/mL with the blocking solution was added to the plate at 50 μL/well, followed by being left to stand at room temperature for 30 minutes. […]

| Binder | Kd [1] | koff [1] | kon [1] | binding result [2] |
| --- | --- | --- | --- | --- |
| antibody obtained from clone 1101 (antibody, V domains shown) VH: EVQLQQSGTVLARPGASVKMSCKASGFSFTSYWMHWVKQRPGQGLEWIGAIYPGNSDTRNNQKFKGKAKLTAVTSANTAYMELSSLTNEDSAVYYCTRKAHYGNYGFAYWGQGTLVTVSAA VL: DIQMTQSSSYLSVSLGGRVTITCKASDHINNWLAWYQQKPGNAPRLLISGATSLETGVPSRFSGSGSGKDYTLSITSLQTEDVATYYCQQYWSTPLTFGAGTKLELKRADAAP | 66.8 nM | 0.00325 s⁻¹ | 93700 M⁻¹ s⁻¹ | – |
| antibody obtained from clone 99-5 (antibody, V domains shown) VH: QIQLVQSGPELKKPGETVKISCKASGYTFTNYGMNWVKQAPGKGLKWMGWINTKIGEPTYAEEFKGRFAFSLETSASTAYLQINNLKNEDTATYFCARLLDYWGQGTTLTVSSAKTTPPSV VL: GDIVLTQSPASLAVSLGQRATISCRASESVDSYGNSFMHWYQQKPGQPPKLLIYRASNLESGIPARFSGSGSRTDFTLTINPVEADDVATYYCQQSNEDPRTFGGGTKLEIKRADAAPTVS | 32.6 nM | 0.000585 s⁻¹ | 18000 M⁻¹ s⁻¹ | – |

The remaining lines, values ahead:

| Kd [1] | koff [1] | kon [1] | binding result [2] | Binder |
| --- | --- | --- | --- | --- |
| – | – | – | binds | antibody obtained from clone 99-5 (antibody, V domains shown, also called antibody 99) VH: QIQLVQSGPELKKPGETVKISCKASGYTFTNYGMNWVKQAPGKGLKWMGWINTKIGEPTYAEEFKGRFAFSLETSASTAYLQINNLKNEDTATYFCARLLDYWGQGTTLTVSS VL: DIVLTQSPASLAVSLGQRATISCRASESVDSYGNSFMHWYQQKPGQPPKLLIYRASNLESGIPARFSGSGSRTDFTLTINPVEADDVATYYCQQSNEDPRTFGGGTKLEIKR |
| – | – | – | binds | antibody obtained from clone 1101 (antibody, V domains shown, also called antibody 1101) VH: EVQLQQSGTVLARPGASVKMSCKASGFSFTSYWMHWVKQRPGQGLEWIGAIYPGNSDTRNNQKFKGKAKLTAVTSANTAYMELSSLTNEDSAVYYCTRKAHYGNYGFAYWGQGTLVTVSA VL: DIQMTQSSSYLSVSLGGRVTITCKASDHINNWLAWYQQKPGNAPRLLISGATSLETGVPSRFSGSGSGKDYTLSITSLQTEDVATYYCQQYWSTPLTFGAGTKLELKR |
